Assay [1] concerns the target HIV gp160 (HxB2) expressed by tetracycline-induced Jurkat 522 FY cells (HIV (HxB2), UniProt P04578 33-856). The assay is described as follows: cell-based or functional assay.
For assay [2], the target named is HIV gp140 (CM244, subtype AE, R5-tropic) expressed by HEK 293 D371 cells (HIV (CM244, subtype AE)). The assay is described as follows: cell-based or functional assay.

B1: anti-CD3 × anti-HIV gp120 bispecific diabody (anti-HIV gp120 antibody A32 and humanized anti-CD3 Antibody 2 binding domains) (bispecific antibody)
chain 1: QSALTQPPSASGSPGQSVTISCTGTSSDVGGYNYVSWYQHHPGKAPKLIISEVNNRPSGVPDRFSGSKSGNTASLTVSGLQAEDEAEYYCSSYTDIHNFVFGGGTKLTVLGGGSGGGGEVQLVESGGGLVQPGGSLRLSCAASGFTFSTYAMNWVRQAPGKGLEWVGRIRSKYNNYATYYADSVKGRFTISRDDSKNSLYLQMNSLKTEDTAVYYCVRHGNFGNSYVSWFAYWGQGTLVTVSSGGCGGGEVAALEKEVAALEKEVAALEKEVAALEK
chain 2: QAVVTQEPSLTVSPGGTVTLTCRSSTGAVTTSNYANWVQQKPGQAPRGLIGGTNKRAPWTPARFSGSLLGGKAALTITGAQAEDEADYYCALWYSNLWVFGGGTKLTVLGGGGSGGGGQVQLQESGPGLVKPSQTLSLSCTVSGGSSSSGAHYWSWIRQYPGKGLEWIGYIHYSGNTYYNPSLKSRITISQHTSENQFSLKLNSVTVADTAVYYCARGTRLRTLRNAFDIWGQGTLVTVSSGGCGGGKVAALKEKVAALKEKVAALKEKVAALKE
Regarding B1, the “EC50 (ng/mL) of CD8-mediated cytotoxicity, pan T cells, 24 h” value is 0.75 ng/mL in assay [1] and 0.024 ng/mL in assay [2].

B2: anti-CD3 × anti-HIV env bispecific diabody (anti-HIV env antibody 7B2 and humanized anti-CD3 Antibody 2 binding domains) (bispecific antibody)
chain 1: DIVMTQSPDSLAVSPGERATIHCKSSQTLLYSSNNRHSIAWYQQRPGQPPKLLLYWASMRLSGVPDRFSGSGSGTDFTLTINNLQAEDVAIYYCHQYSSHPPTFGHGTRVEIKGGGSGGGGEVQLVESGGGLVQPGGSLRLSCAASGFTFSTYAMNWVRQAPGKGLEWVGRIRSKYNNYATYYADSVKGRFTISRDDSKNSLYLQMNSLKTEDTAVYYCVRHGNFGNSYVSWFAYWGQGTLVTVSSGGCGGGEVAALEKEVAALEKEVAALEKEVAALEK
chain 2: QAVVTQEPSLTVSPGGTVTLTCRSSTGAVTTSNYANWVQQKPGQAPRGLIGGTNKRAPWTPARFSGSLLGGKAALTITGAQAEDEADYYCALWYSNLWVFGGGTKLTVLGGGGSGGGGQVQLVQSGGGVFKPGGSLRLSCEASGFTFTEYYMTWVRQAPGKGLEWLAYISKNGEYSKYSPSSNGRFTISRDNAKNSVFLQLDRLSADDTAVYYCARADGLTYFSELLQYIFDLWGQGARVTVSSGGCGGGKVAALKEKVAALKEKVAALKEKVAALKE
As to B2, the “EC50 (ng/mL) of CD8-mediated cytotoxicity, pan T cells, 24 h” value worked out at 0.49 ng/mL in assay [1] and 0.006 ng/mL in assay [2].

Values taken from US20210095021A1 (MacroGenics, published 2021).
